For one experiment, the target named is T1, rat TG2 (rat, UniProt Q9WVJ6 1-686).
T1 sequence: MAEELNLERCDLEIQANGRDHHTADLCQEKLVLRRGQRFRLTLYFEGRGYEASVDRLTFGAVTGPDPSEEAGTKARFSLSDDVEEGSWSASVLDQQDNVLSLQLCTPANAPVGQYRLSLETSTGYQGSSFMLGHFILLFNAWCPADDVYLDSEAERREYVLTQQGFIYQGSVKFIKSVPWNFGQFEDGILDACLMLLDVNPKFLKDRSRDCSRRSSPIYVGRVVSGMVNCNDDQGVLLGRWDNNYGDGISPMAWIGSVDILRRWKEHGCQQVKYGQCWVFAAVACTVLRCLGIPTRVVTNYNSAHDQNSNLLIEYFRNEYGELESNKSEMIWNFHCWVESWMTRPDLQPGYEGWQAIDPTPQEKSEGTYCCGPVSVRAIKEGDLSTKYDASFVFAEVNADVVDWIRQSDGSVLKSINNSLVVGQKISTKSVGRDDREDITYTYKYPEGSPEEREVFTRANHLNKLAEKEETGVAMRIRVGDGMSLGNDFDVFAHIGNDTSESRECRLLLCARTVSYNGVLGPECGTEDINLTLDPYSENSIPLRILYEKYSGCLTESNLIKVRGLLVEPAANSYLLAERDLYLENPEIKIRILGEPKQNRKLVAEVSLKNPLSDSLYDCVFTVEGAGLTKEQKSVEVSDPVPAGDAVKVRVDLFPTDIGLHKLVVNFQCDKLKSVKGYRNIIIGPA
As to the kind of experiment: western blot and ELISA. (In western blotting, separated proteins are transferred to a membrane and probed.)

The target in the next experiment is T2, mouse TG2 (mouse, UniProt P21981 1-686).
T2 sequence: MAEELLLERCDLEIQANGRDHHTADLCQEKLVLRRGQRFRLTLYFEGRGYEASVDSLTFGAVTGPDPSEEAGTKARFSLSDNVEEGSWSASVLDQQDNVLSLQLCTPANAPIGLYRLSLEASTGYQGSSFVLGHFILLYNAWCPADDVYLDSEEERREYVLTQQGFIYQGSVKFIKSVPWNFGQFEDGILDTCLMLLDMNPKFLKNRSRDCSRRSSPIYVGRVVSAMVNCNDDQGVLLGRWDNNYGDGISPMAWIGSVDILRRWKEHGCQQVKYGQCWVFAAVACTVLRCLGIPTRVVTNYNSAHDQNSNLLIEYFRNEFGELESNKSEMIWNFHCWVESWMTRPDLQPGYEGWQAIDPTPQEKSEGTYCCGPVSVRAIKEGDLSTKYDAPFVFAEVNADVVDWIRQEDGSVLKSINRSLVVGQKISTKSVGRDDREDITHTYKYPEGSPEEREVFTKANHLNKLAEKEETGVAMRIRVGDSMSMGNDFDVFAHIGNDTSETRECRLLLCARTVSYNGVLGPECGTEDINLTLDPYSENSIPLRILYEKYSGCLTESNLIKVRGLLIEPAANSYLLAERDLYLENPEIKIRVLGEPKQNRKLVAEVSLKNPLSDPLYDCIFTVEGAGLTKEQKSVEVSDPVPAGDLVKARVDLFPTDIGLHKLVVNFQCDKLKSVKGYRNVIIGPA
As to the kind of experiment: western blot and ELISA.

In experiment [1] the target is T3, human transglutaminase type 2 (TG2) (human, UniProt P21980 1-687).
T3 sequence: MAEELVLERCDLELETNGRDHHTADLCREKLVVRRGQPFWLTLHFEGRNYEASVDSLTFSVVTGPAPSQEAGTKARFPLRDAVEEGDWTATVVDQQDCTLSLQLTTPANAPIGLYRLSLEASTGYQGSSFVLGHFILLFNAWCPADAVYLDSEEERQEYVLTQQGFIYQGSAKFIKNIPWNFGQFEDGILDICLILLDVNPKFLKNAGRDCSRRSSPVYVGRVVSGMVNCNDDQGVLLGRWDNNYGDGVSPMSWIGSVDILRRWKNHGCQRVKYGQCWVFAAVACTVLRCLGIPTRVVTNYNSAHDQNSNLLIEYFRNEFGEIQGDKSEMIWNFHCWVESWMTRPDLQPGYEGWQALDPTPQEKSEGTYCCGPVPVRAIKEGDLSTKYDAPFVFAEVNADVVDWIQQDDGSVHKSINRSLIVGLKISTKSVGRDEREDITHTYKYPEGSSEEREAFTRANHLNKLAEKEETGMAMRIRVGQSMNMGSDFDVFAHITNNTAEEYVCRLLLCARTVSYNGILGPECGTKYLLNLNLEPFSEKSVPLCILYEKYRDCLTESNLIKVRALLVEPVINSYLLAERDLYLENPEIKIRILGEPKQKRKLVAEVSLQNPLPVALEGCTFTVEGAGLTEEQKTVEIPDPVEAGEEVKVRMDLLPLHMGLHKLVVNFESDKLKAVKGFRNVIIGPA
As to the kind of experiment: cell-based or functional assay.

B1: AB1 murine monoclonal anti-TG2 antibody (antibody, V domains shown)
VH: EVQLVESGGGLVKPGGSLKLSCAASGFTLSSSAMSWVRQTPDRRLEWVATISVGGGKTYYPDSVKGRFTISRDNAKNTLYLQMNSLRSEDTAMYYCAKLISLYWGQGTTLTVSS
VL: DIKMTQSPSSMYASLGERVTITCKASQDINSYLTWFQQKPGKSPKTLIYRTNRLFDGVPSRFSGSGSGQDFFLTISSLEYEDMGIYYCLQYDDFPYTFGGGTKLEIK
notes: they differ only in the first residues; also called AB1 IgG; mAB003
Turning to B1, the binding result with rat TG2 and with mouse TG2 was “binds” each time. In addition, the “IC50, 3H-putrescine incorporation TG activity assay” value in experiment [1] is 1.1e-05 mg/ml of IgG (amount required to inhibit 1 ng of TG2).

The values above are taken from patent US20180355060A1 (published 2018).
